Supplementary Table 1: liposome permeabilization EC50 (peptide dose against AUC, 50 nM BAK; data of Supplementary Figure 4b; also printed in Supplementary Figure 3d) and Kd data for two molecules are collected here from publication PMC8752837, “Structural basis of BAK activation in mitochondrial apoptosis initiation” (Nature Communications, 2022).

For test [1], the target named is T1, MEAS-BAK-His6 (C-terminus truncated recombinant human BAK containing C-terminal 6x histidine tag) (human) (UniProt Q16611).
T1 sequence: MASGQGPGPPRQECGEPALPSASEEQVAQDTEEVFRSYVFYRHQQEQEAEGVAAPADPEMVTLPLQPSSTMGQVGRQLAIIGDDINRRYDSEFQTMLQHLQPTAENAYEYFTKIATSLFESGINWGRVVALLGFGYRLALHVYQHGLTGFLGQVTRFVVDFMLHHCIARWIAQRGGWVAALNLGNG

Test [2] deals with T2, Human BAK-∆TM-His6 (human).
T2 sequence (Q16611 whole entry, looked up): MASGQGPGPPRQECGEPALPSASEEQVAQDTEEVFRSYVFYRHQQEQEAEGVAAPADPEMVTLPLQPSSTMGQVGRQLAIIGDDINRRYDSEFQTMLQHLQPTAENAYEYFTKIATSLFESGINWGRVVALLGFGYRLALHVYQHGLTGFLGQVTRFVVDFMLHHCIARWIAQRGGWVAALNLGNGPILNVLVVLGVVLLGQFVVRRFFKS
Put plainly: SPR; MEAS-BAK-His6 captured (~500 RU) on Ni2+-charged NTA HisCap chip, peptides injected; 20 °C; 20 mM HEPES pH 8.0, 200 mM NaCl, 1 mM TCEP, 0.01% Tween20; 1:1 interaction model. For orientation: Surface plasmon resonance follows binding to a sensor surface in real time, without labels.

B1: WT BAK BH3 peptide (peptide)
peptide: SASEEQVAQDTEEVFRSYVFYRHQQEQEAEGVAAPADPEMVTLPLQPSSTMGQVGRQLAIIGDDINRRYDSEFQTMLQHLQPTAENAYEYFTKIATSLFESGINWGRVVALLGFGYRLALHVYQHGLTGFLGQVTRFVVDFMLHHCIARWIAQRGGWVAALNL
modifications: N-terminal acetylation; C-terminal amidation
With B1, the Supplementary Table 1: liposome permeabilization EC50 (peptide dose against AUC, 50 nM BAK; data of Supplementary Figure 4b; also printed in Supplementary Figure 3d) in test [1] worked out at 0.0358 µM.

B2: BAK BH3 peptide (peptide)
peptide: SASEEQVAQDTEEVFRSYVFYRHQQEQEAEGVAAPADPEMVTLPLQPSSTMGQVGRQLAIIGDDINRRYDSEFQTMLQHLQPTAENAYEYFTKIATSLFESGINWGRVVALLGFGYRLALHVYQHGLTGFLGQVTRFVVDFMLHHCIARWIAQRGGWVAALNL
modifications: N-terminal acetylation; C-terminal amidation
Regarding B2, the Kd in test [2] turned out to be 67 µM.

A word on the Kd: it is a measure of binding affinity in units of concentration. A higher Kd goes with a looser complex.
